A short description of this series: soluble on expression in E. coli; label from the status in PepcDB or PDB records.
With “GPGSMWFNHRIRQRGLTPVLVNTLQKRLTCSLTRICLCDCKDASGREGVSSSTSGSVPSRMTSQNPPPRPPPTTPAATPGGVQYNTRRESEAVAIEQRRQQQQRATDAQRRGEEPLPEQSESEMARWWPEENQNWSGRMFASPLDKNKKKFDGMFVPEMKEVHGPDKPLELSYAGDNFFLNPDFHMADEVFDETRRFVPPPSFDPAVDEIDDEGFVDGQVMFDIQKAVDEDRRRLEAFGNPLLVEDQVDYLLQPQREGQENIQQRQEFNGFVHWGLLHGAHMIIEENQDYKKAHEFVNRYMRDIDLFQKWLEHPKVRAHIQKKFGVDMHAKFDKLMALVMAMYARSKIQVYEDDPAGALKSLTACMSFINEGADLKKERHRKAIGAVLAARGMVYCKLKSYDRAEDDLTRALRFVNQKRCATLFQLRAEAREALGRIEEARLDEERAAEIWENAEVIAPGMSGKPYKFVL”, the “soluble on expression in E. coli” value is reported as “not soluble”.

Regarding “GPGSMWGRYVRVCTREQHSRKQLTSAGVPQGGVPGPKLFLHCVDDLLHRMDNIYSASAFMHADDLKLVASGADIHACAAAMQPALPLITKWAAEHSLKINVAKSESALFHISSHTRSDEDMVDLLPGNGNLRIQSCPVRLLDTTFDRLLNFGPHASTAAKRTMPRRYQLRPVAQAGASHHNTQSFSIGYVHIVLFHNGDAILPCFAHIYLHNMEVRYRDGRKTFLA”, the “soluble on expression in E. coli” value is on record as “not soluble”.

Regarding “GPGSMYSKTPCVLGMPYEAAGAVLCNNPYRSQALSWYRKFLKAAFTVPWETDDDALYVMEESRRLFRQNARLTDVEMIQRKLREAEMRYELGVHYRIPYPRPVHKMQGSLQESGVPYAADLDSMYDHPVNPRTGRISEGSANYGVMGGVDNSNELLEGEMGADAEDFSK”, the “soluble on expression in E. coli” value is “soluble”.

For “GPHMSVSESAVFAYESSVHSTNVLLSLNDQRKKDVLCDVTVLVEGQRFRAHRSVLAACSSYFHSRIVGQTDAELTVTLPEEVTVKGFEPLIQFAYTAKLILSKDNVDEVCRCVEFLSVHNIEESCFQFLKFKFLDSTS”, the “soluble on expression in E. coli” value is on record as “soluble”.

With “GPLGSAGKSSLFKIILLGDGGVGKSSLMNRYVTNKFDSQLFHTIGVEFLNKDLEVDGHFVTMQIWDTAGQERFRSLRTPFYRGSDCCLLTFSVDDSQSFQNLSNWKKEFIYYADVKEPESFPFVILGNKTDIKERQVSTEEAQAWCKDNGDYPYFETSAKDSTNVAAAFEEAVRRILAT”, the “soluble on expression in E. coli” value is listed as “soluble”.

Turning to “GPLGSETITVPTPIKQIFSDDAFAETIKDNLKKKSVTDAVTQNELNSIDQIIANNSDIKSVQGIQYLPNVTKLFLNGNKLTDIKPLANLKNLGWLFLDENKVKDLSSLKDLKKLKSLSLEHNGISDINGLVHLPQLESLYLGNNKITDITVLSRLTKLDTLSLEDNQISDIVPLAGLTKLQNLYLSKNHISDLRALAGLKNLDVLELFSQECLNKPINHQSNLVVPNTVKNTDGSLVTPEIISDDGDYEKPNVKWHLPEFTNEVSFIFYQPVTIGKAKARFHGRVTQPLKE”, the “soluble on expression in E. coli” value is “soluble”.

In the case of “GPLGSGALKWVLCNYDFQARNSSELSVKQRDVLEVLDDSRKWWKVRDPAGQEGYVPYNILTPYPAAAS”, the “soluble on expression in E. coli” value is “soluble”.

“GPLGSMSVAGLKKQFHKATQKVSEKVGGAEGTKLDDDFKEMERKVDVTSRAVMEIMTKTIEYLAHLSSLLQAEALLAEAMLKFGRELGDDCNFGPALGEVGEAMRELSEVKDSLDIEVKQNFIDPLQNLHDKDLREIQHHLKKLEGRRLDFDYKKKRQGKIPDEELRQALEKFDESKEIAESSMFNLLEMDIEQVSQLSALVQAQLEYHKQAVQILQQVTVRLEERIRQA”: the “soluble on expression in E. coli” value is reported as “soluble”.

As for “GPMRRERGRQGDSSSCERQVDRVNLKPCEQHIMQRIMGEQEQYDSYDIRSTRSSDQQQRCCDELNEMENTQGCMCEALQQIMENQCDRLQDRQMVQQFKRELMSLPQQCNFRAPQRCDLDVSGGRCS”, the “soluble on expression in E. coli” value was “soluble”.

Take “GPVDPVKTFSEVLAAVEDRTISKELLDEKCRKILAFKYALIICKGISKELPAEEVVRQVNSREAERMSEDLWQASITILKNKKHFLPLSEGNRIACVNLDGAASNTFTQELGLTSKDCYSYAKGSNSTRTQELLSKLKGYDAVIVTVRHTQPDWAGTFLHRLTEQNHTAIVFFTSPYVADRIPAAMDKARAIVVAYENVKEAARMAAYKIRDRVVVSSGGGIPVVQEEEDTDPTANMMPPTELSSGLIPMPA”: the “soluble on expression in E. coli” value is given as “not soluble”.

In the case of “GPVKLRLTVLCAKNLVKKDFFRLPDPFAKVVVDGSGQCHSTDTVKNTLDPKWNQHYDLYIGKSDSVTISVWNHKKIHKKQGAGFLGCVRLLSNAINRLKDTGYQRLDLCKLGPNDNDTVRGQIVVSLQSRD”, the “soluble on expression in E. coli” value is “soluble”.

“GQLDDVLMPYVGDQTEAQIYKKLRHFWIMLDRTLPDAFMHVNIGPTDNIICRTILRVDAELKQIAPNLTFMYDESITPDDLLRQATKNICDCSKPHIANYPIHANAYDGERFGIVSCYNSLPLAGGSNTLVRMNLKEVAKRAASRDDFFSNVLPTYHQLMTELMDARSSHLHEQSQFFQGFLTQEGLIEESRFAPMYGIYGMAEAVNLLLEKEGQTSRYGQDERANALGHEISASLATLVDSTPVRYGLEGKALLHAQGGISLDLDVTPGVRLPYGNEPDPVTYVQATAAHHQYYRAGISDILTIDETVKSNPEAMFNLCKGALNAGYREFTANVASNDLVRVTGYMVKLSDIAKYDAEGSRTNTTFLGAEAAKNTGILERSPRVVSQEMSPVYK”: the “soluble on expression in E. coli” value is reported as “not soluble”.

As to “GQQKNMENKTLNENIPEMIISLEKEALASTDPMAFVELSDTDVIYFDPSLETKIEGLEQLRTYYKGMQLPPADHFDMIRPVVQVAQNIAVLTFNLDSYLSDKVIKWNCTEVYRRNPDNQWKIIQTHWSYVKPLD”, the “soluble on expression in E. coli” value was “soluble”.

In the case of “GRTVVVTTIMESPYVMYKKNHEMFEGNDKYEGYCVDLASEIAKHIGIKYKIAIVPDGKYGARDADTKIWNGMVGELVYGKAEIAIAPLTITLVREEVIDFSKPFMSLGISIMIKKGTPIESAEDLAKQTEIAYGTLDSGSTKEFFRRSKIAVYEKMWTYMRSAEPSVFTRTTAEGVARVRKSKGKFAFLLESTMNEYIEQRKPCDTMKVGGNLDSKGYGVATPKGSSLRTPVNLAVLKLSEAGVLDKLKNKWWYDKGECG”, the “soluble on expression in E. coli” value is listed as “soluble”.

As for “GSADAPRDRHRTIVVGGDRDYPPYEFIDQNGKPAGYNVELTRAIAEVMGMTVEFRLGAWSEMFSALKSGRVDVLQGISWSEKRARQIDFTPPHTIVYHAIFARRDSPPAAGLEDLRGRKVALHRDGIMHEYLAERGYGKDLVLTPTPADALRLLAAGGCDYAVVAMVPGMYIIRENRLTNLVPVARSIAAQRYGYAVRQGDAELLARFSEGLAILRKTGQYEAIRAKWLGVLEP”, the “soluble on expression in E. coli” value is on record as “soluble”.

With “GSAMASNAVLYKSNHNVVYSCKYHIVWCPKYRRKVLVGAVEMRLKEIIQEVAKELRVEIIEMQTDKDHIHILADIDPSFGVMKFIKTAKGRSSRILRQEFNHLKTKLPTLWTNSCFISTVGGAPLNVVKQYIENQQNSNRPKQKEKWKSYVDNLQTKAL”, the “soluble on expression in E. coli” value is given as “soluble”.

Regarding “GSCEKENIGIEVTPVNAKFIITPVVIDATTGTDVTQSAEISFSKGNGTYEGTPELASESININAKYKGMTGSASVTIPALKAGQFGAKEVTIILSENFFAQEESSNSQIETTKHSGFKNNTSDYWYYITVTYTKKEGSEVIKNDYEGDDSEIKNIIDAYNKGVREDKVTLNDVQVLAHSRFSVFVDYMKTTSVYQIIEKSPKRDGNPVASFTVDSYNTIVSPKNEQIPGHGHAPSHGHGHGHGDDSNAGGGIIIAD”, the “soluble on expression in E. coli” value is “soluble”.

With “GSEVAIKMVVVGNGAVGKSSMIQRYCKGIFTKDYKKTIGVDFLERQIQVNDEDVRLMLWDTAGQEEFDAITKAYYRGAQACVLVFSTTDRESFEAISSWREKVVAEVGDIPTALVQNKIDLLDDSCIKNEEAEGLAKRLKLRFYRTSVKEDLNVSEVFKYLAEKHLQK”, the “soluble on expression in E. coli” value is listed as “soluble”.

Regarding “GSFIDIEFPEWFHEGLSRHQAENLLMGKDIGFFIIRASQSSPGDFSISVRHEDDVQHFKVMRDTKGNYFLWTEKFPSLNKLVDYYRTTSISKQKQVFLRD”, the “soluble on expression in E. coli” value is recorded as “soluble”.

The values are drawn from the DeepSol protein solubility set.
